Data reported in patent publication US20160108117A1 (UNIVERSITE DE NICE SOPHIA ANTIPOLIS, published 2016).
Values belong to the binder of their own block, whether it stands above or below them.

Tests used:
[1] = target: T1, human chemokine CXCL7 (human, UniProt P02775 59-128); experiment: SPR (Biacore 3000), antibody captured on a CM5 chip, cytokine as analyte, 25 C; head 'x M10Exp8' applied, agrees with 1/Kd
T1 construct: also called NAP2; NAP-2
T1 sequence (looked up): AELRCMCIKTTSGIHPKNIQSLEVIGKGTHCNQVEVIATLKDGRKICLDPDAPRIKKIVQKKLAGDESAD
Excerpt: (§1) With the BIAcore® 3000, 4 canals (Flow cell) are designed on the CM5 sensor surface. The polyclonal rabbit anti mouse IgG antibodies are covalently coupled on the 2nd, 3rd and 4th flow cells (FC), leaving the first FC (FC1) blank for reference subtraction. The first FC (FC1) is only activated (EDC/NHS) and deactivated (ethanolamine hydrochloride NaOH), without injection of capture antibody.
(§2) First the ligand (interest antibody) is captured by the immobilised antibodies. Diluted antibodies Mc12A10-13 (5 μg/mL), Mc35B11-8 (8 μg/mL), McCXCL1 (2 μg/mL), McCXCL7 (1 μg/mL), McCXCL8 (3 μg/mL), McPan CXCL1-2-3 (5 μg/mL) are captured by the polyclonal rabbit anti mouse IgG antibodies immobilized on the CM5 sensor chip with a 3 minutes injection at a flow rate of 5 μL/min. The complex “capture antibody—ligand” is stabilized during 10 minutes before the injection of the analyte (cytokines). This capture is a non-covalent interaction.
(§3) Then a range of cytokine concentration is injected (analyte) over the captured antibody (ligand). Cytokines CXCL1, CXCL3, NAP2, IL8 are injected over the captured ligand for a range of concentration from 0 to 10 μg/mL, at a flow rate of […]. The complex “ligand/analyte” is formed. The association and the dissociation phases are monitored over about 3 minutes and 2.5 minutes respectively. The signal induced is measured in RU (Resonance Unit).

[2] = target: T2, CXCL3 (human (presumed; the text does not …, UniProt P19876); experiment: SPR (Biacore 3000), antibody captured on a CM5 chip, cytokine injected as analyte, 25 C
T2 construct: also called cytokine CXCL3; Gro-gamma
T2 sequence (chemokine, looked up): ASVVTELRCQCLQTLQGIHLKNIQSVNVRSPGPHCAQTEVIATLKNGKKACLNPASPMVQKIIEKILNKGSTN
Excerpt: as §1, §2, §3

[3] = target: T3, human chemokine CXCL8 (human, UniProt P10145 28-99, limits assumed); experiment: as above
T3 construct: also called IL8; IL-8
T3 sequence (looked up): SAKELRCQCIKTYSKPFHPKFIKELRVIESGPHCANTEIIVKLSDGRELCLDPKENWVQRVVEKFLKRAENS
Excerpt: as §1, §2, §3

[4] = target: T1, human chemokine CXCL7; experiment: as above
Excerpt: as §1, §2, §3

[5] = target: T4, human chemokine CXCL1 (human, UniProt P09341 35-107); experiment: as above
T4 construct: also called growth-regulated oncogene alpha; GRO-alpha
T4 sequence (looked up): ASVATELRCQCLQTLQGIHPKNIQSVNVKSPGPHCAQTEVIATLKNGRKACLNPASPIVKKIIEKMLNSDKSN
Excerpt: as §1, §2, §3

[6] = target: T3, human chemokine CXCL8; experiment: SPR (Biacore 3000), antibody captured on a CM5 chip, cytokine as analyte, 25 C; head 'x M10Exp8' applied as printed, but this does not agree with 1/Kd of the same pair (about 5.03e7)
Excerpt: as §1, §2, §3

[7] = target: T4, human chemokine CXCL1; experiment: SPR (Biacore 3000), antibody captured on a CM5 chip, cytokine as analyte, 25 C; head 'x M10Exp8' applied as printed, but this does not agree with 1/Kd of the same pair (about 8.47e7)
Excerpt: as §1, §2, §3

[8] = target: T5, peptide specific for human CXCL7 of sequence SDLYAELRCMCIKTTSGIHPKNIQS (SEQ ID NO: 20) coupled to keyhole … (human, coupled to keyhole limpet hemocyanine); experiment: ELISA screen on KLH-coupled peptide
T5 construct: Immunisation peptide, used in the ELISA screen as a KLH conjugate; also called pCXCL7
T5 peptide: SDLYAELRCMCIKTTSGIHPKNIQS

[9] = target: T3, human chemokine CXCL8; experiment: SPR (Biacore 3000), antibody captured on a CM5 chip, cytokine as analyte, 25 C; head 'x M10Exp8' applied as printed, but this does not agree with 1/Kd of the same pair (about 2.26e7)
Excerpt: as §1, §2, §3

[10] = target: T4, human chemokine CXCL1; experiment: SPR (Biacore 3000), antibody captured on a CM5 chip, cytokine as analyte, 25 C; head 'x M10Exp8' applied as printed, but this does not agree with 1/Kd of the same pair (about 6.4e7)
Excerpt: as §1, §2, §3

[11] = target: T2, CXCL3; experiment: SPR (Biacore 3000), antibody captured on a CM5 chip, cytokine as analyte, 25 C; head 'x M10Exp8' applied as printed, but this does not agree with 1/Kd of the same pair (about 1.55e7)
Excerpt: as §1, §2, §3

- Ka [1]: 2.01e+08 M⁻¹
- Kd [2]: 247 nM
- Kd [3]: 19.9 nM
- Kd [4]: 4.99 nM
- Kd [5]: 11.8 nM
- Ka [6]: 5.03e+07 M⁻¹
- Ka [7]: 8.5e+07 M⁻¹
- binding result [8]: binds
B1: monoclonal rat IgG antibody produced by the hybridoma 35B11-8 (CNCM I-4618) (antibody, V domains shown)
VH: EVQLVESGGGLVQPGRSLKLSCVASGFTFNNYWMTWIRQAPGKGLEWVASISKTGSNPYYPDSVKGRFTISRDNAKNTLYLQMNSLRSEDTATYYCARDGTTPLDYWGQGVMVTVSS
VL: DIQMTQSPPSLSASLGDKVTITCQASQNINKYIAWYQQKPGKAPGLLIHYTSTLVSGIPSRFSGSGSGRVYSFSISNVESEDIASYYCLQYDNSPFPFGAGTKLELK
notes: also called Mc35B11-8

- Ka [1]: 3.03e+08 M⁻¹
- Kd [2]: 64.5 nM
- Kd [3]: 44.3 nM
- Kd [4]: 3.3 nM
- Kd [5]: 15.6 nM
- Ka [9]: 2.26e+07 M⁻¹
- Ka [10]: 6.4e+07 M⁻¹
- binding result [8]: binds
- Ka [11]: 1.55e+07 M⁻¹
B2: monoclonal rat IgG antibody produced by the hybridoma 12A10-13 (CNCM I-4617) (antibody, V domains shown)
VH: QVQLQQSGAELAKPGSSVKISCKASGYTFTSYYISWIKQTTGQGLEYIGYINTGSGGTNYNEKFKGKATLTVDKSSSTAFMQLSSLTPDDSAVYYCASPSGGFDYWGQGVMVTVSS
VL: EIVLTQSPTTMAASPGEKVTITCRASSSVSYMHWYQQKPGASPKPWIYDTSKLASGVPNRFSGSGSGTSYSLTISSMETEDTATYYCQQWSSNSLTFGSGTKLEIK
notes: also called Mc12A10-13
